Tests used:
[1] = target: HLA-C07:01 (C1) on 721.221 cells (human | human (endogenous in 721.221))
[2] = target: HLA-C01:02 (C1) on 721.221 cells (human | human (endogenous in 721.221))

## KIR2DL2 reporter (2DL2–2DS1TM chimeric molecule, KIR2DL2*001) (receptor)
[1]
  GFP-positive NFAT-GFP reporter cells after overnight coculture with 721.221 transfectants (E:T 1:3): > 20 % GFP cells
[2]
  GFP-positive NFAT-GFP reporter cells after overnight coculture with 721.221 transfectants (E:T 1:3) (% GFP-positive cells): < 5

Source: article PMC5372792
